Patent publication US20090022782A1, “Blood Retainable Device Exhibiting Selective Degradability in Tumor Tissue” (NATIONAL UNIVERSITY CORP. HOKKAIDO UNIVERSITY, priority 2005, published 2009)
Ends that are not written are not given here. * marks the point of attachment. DOPE = dioleoylphosphatidylethanolamine, CCCCCCCC/C=C\CCCCCCCC(=O)OC[C@H](COP(=O)(O)OCCN*)OC(=O)CCCCCCC/C=C\CCCCCCCC; MeO‑PEG succinate = methoxy poly(ethylene glycol) succinate

Columns and labels:
HEK293 cells = experiment: Gene expression (luciferase activity) after transfection with MENDs, HEK293 cells; assay type: cell-based, human
Method: (§1) By using D′MEM added with inactivated FBS (FBS final concentration: 10%), the human fibrosarcoma-derived HT1080 cells were cultured on a sterilized culture dish in a CO2 incubator (37° C., 5% CO2). When the cells reached 70% confluence, the cells were removed from the dish by using 0.5 mM EDTA-PBS, the cell suspension was diluted to a density of 1 to 5×10^4 cells/mL using fresh D′MEM, and the cells were subcultured on a sterilized dish. In a similar manner, human kidney […] HEK293 cells were cultured. In the case of the HEK293 cells, the cells were removed from the dish by using 0.05% Trypsin/0.5 mM EDTA-PBS, and subcultured.
(§2) One day before the transfection, the HT1080 cells and the HEK293 cells were each inoculated into 1 mL of a medium on a 24-well plate at a density of 4×10^4 cells/well. A sample, prepared to be corresponding to 0.4 μg of DNA, was diluted to 250 μL with FBS- and antibiotic-free D′MEM (hereinafter abbreviated as “D′MEM(−)”) in the case of a serum free medium, or diluted similarly with D′MEM in the case of serum containing medium. […] The luciferase activity (RLU) in 20 μL of the supernatant was measured, and proteins were measured according to the BCA method for the supernatant diluted 5 times with DDW to calculate RLU/mg protein.

HT1080 cells = experiment: Gene expression (luciferase activity) after transfection with MENDs, HT1080 cells; assay type: cell-based, human
Method: as §1, §2

[1] = Particle diameter and aggregation of DOPE liposomes versus addition ratio of PEG-lipid; assay type: physicochemical; settings: for aggregation on incubation: DOPE liposomes with PEG-peptide-DOPE, 37° C.
Method: (§3) A 1 mM lipid solution dissolved in ethanol, of which 125 μL was taken as 100%, was put into test tubes at various molar ratios, and a 1 mM DOPE-PEG solution was also added as required. Chloroform was added in the same volume of ethanol to the mixture in each tube, and the mixture was stirred. Then, the solvent was evaporated in a desiccator to obtain a lipid membrane. After the preparation of the lipid membrane, a solution (250 μL) containing 20 mM HEPES (pH 7.4), 280 mM NaCl, and 4 mM CaCl2 was added, and after hydration for 30 minutes, the mixture was sonicated for 1 minute to prepare liposomes.
(§4) Then, to the prepared liposomes (50 μL), PBS (10 μL), 230 nM or 5.5 nM MMP-2 in terms of final concentration, and 230 nM bovine serum albumin in terms of final concentration were added, the mixture was incubated at 37° C., and after 2, 8 and 24 hours, the particle diameter was measured. […] Even with the addition of 1% of DOPE-PEG, liposomes having a particle size less than 200 nm and showing stable dispersion was successfully prepared.
Also in this experiment, liposomes having a particle size less than 200 nm and showing stable dispersion were similarly prepared with the addition of 1% of PEG-peptide-DOPE.

MMP-2 [2] = target: T1, MMP-2 (Homo sapiens, UniProt P08253); experiment: Evaluation of PEG cleavage by MMP-2 (aggregation / particle diameter of DOPE liposomes); assay type: biochemical; settings: for aggregation of the liposomes: DOPE liposomes containing PEG-peptide-DOPE at 10%
T1 construct: purchased Sigma
T1 sequence (P08253 110-660): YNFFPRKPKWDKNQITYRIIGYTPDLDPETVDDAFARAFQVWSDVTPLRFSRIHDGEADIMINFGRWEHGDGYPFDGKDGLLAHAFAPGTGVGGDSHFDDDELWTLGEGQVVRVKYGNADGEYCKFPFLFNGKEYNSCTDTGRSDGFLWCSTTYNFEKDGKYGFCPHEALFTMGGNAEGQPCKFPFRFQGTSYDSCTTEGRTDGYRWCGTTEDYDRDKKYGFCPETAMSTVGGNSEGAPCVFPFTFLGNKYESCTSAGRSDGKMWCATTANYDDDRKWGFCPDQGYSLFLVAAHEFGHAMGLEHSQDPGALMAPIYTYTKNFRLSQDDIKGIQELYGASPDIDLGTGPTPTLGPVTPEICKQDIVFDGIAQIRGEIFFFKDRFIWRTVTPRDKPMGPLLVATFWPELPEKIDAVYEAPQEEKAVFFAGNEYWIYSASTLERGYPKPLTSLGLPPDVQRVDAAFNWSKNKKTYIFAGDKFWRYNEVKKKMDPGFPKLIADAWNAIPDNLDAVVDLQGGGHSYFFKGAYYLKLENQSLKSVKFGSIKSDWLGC
Method: It was evaluated whether or not the PEG-peptide-DOPE obtained in Example 1 was cleavable with MMP. For in vitro evaluation, a system was used with which the cleavage of PEG was detected on the basis of an increase in particle diameter. […] Cylinder-shaped lipids form a lamellar structure (bilayer structure), i.e., a liposome structure, whereas inverse cone-shape lipids form a […] (FIG. 1). It is known that when a PEG-lipid is added at a certain ratio to DOPE, the lipids form a lamellar structure and stably form liposomes. Therefore, if a matrix metalloproteinase is made to act on DOPE-containing liposomes prepared by using PEG-peptide-DOPE, thereby the peptide is decomposed and PEG is cleaved, DOPE molecules from which PEG is cleaved can no longer form liposomes, and take the hexagonal structure to initiate the aggregation. The above hypothesis was adopted as an evaluation method for PEG cleavage. Further, for in vitro evaluation of PEG cleavage, a method of measuring genetic expression activity was adopted. If the interaction of MEND and cell membranes is enhanced by cleavage of PEG, […].
as §3, §4

[3] = Particle diameter and zeta-potential of compaction body and MENDs (Example 4); assay type: physicochemical; settings: Example 4, in HBG; PEG-lipid ratio (5% or 15%) not given
Method: According to the formula (I) mentioned in Example 3, the charge ratio (+/−) was determined to be 1.5, and a compaction body of pDNA coding for luciferase and protamine was prepared in HEPES buffered glucose (10 mM HEPES, pH 7.4, 5% glucose, HBG).
In the same manner as that of Example 3, a lipid membrane consisting of 30% DOTAP, 40% DOPE, and 30% Chol was prepared. To this membrane, PEG-DSPE or PEG-peptide-DOPE was added at a molar ratio of 5% or 15%, and the mixture was evaporated to obtain lipid membranes. Then, the compaction body was added to each of these lipid membranes, and the mixtures were sonicated to prepare MEND, PEG-modified MEND containing PEG-DSPE, and PEG-modified MEND containing PEG-peptide-DOPE.

[4] = Particle diameter and zeta-potential of MENDs (Example 3); assay type: physicochemical
Method: In order to prepare a negatively charged compaction body, the charge ratio (+/−) was determined to be 1.5 according to the formula (1). To 30 μL of pDNA (0.5 mg/mL), 120 μL of 10 mM HEPES-HCl (pH 7.4) was added. To 5 μL of protamine (2 mg/mL), […] of 10 mM HEPES-HCl (pH 7.4) was added. Protamine was slowly added dropwise to the pDNA solution with stirring by a vortex mixer. Formation of the compaction body was confirmed by measurement of the particle diameter and zeta-potential.
Lipid solutions of 1 mM in ethanol, each of which 125 μL was taken as 100%, were put into test tubes at molar ratios of 30% DOTAP, 40% DOPE, and 30% Chol. As for addition of PEG-lipids, 1 mM PEG-DSPE solution or PEG-peptide-DOPE solution in ethanol was added at a molar ratio of 5% or 15% based on the lipids except for the PEG-lipids, which were taken as 100%. Chloroform was added in the same volume of ethanol to the mixture in each tube, and the mixture was stirred. Then, the solvent was evaporated in a desiccator to obtain a lipid membrane. Then, the compaction body solution (250 μL) was added to the lipid membrane, and the mixture was left standing at room temperature for 15 to 30 minutes for hydration, and then sonicated for 1 to 2 minutes. The particle diameter and the zeta-potential were measured. Any significant difference was not observed between the values measured for MENDs containing PEG-peptide-DOPE and MENDs containing PEG-DSPE, and thus it was considered that equivalent MENDs were successfully prepared.

MMP-2 [5] = target: T1, MMP-2; experiment: Decomposition of the peptide by MMP-2, reverse phase HPLC; assay type: biochemical; settings: 0.5 mM peptide, MMP2 53 nM, 230 nM and 450 nM, 37° C., 2 hours
Method: Matrix metalloproteinase 2 (MMP-2) was purchased from Sigma. DOPE-PEG was purchased from Avanti. Trypsin was purchased from Life Technologies. DISMIC was purchased from Advantec. Reverse phase HPLC was performed by using Model 1321H1 (GILSON), UV/VIS-155 (GILSON) as a detector, SOSMOSIL 5C18-AR-II (Nacalai Tesque) as a column, and 0.5% TFA-H2O and 0.5% TFA-acetonitrile filtered through Millicup-LH vacuum-driven bottletop filter unit (Millipore) as a mobile phase. The flow rate was 1.0 mL/minute.
First, it was examined whether or not the peptide was decomposed by MMP-2. A 0.5 mM peptide solution (25 μL) dissolved in a solution containing 10 mM HEPES (pH 7.4), 140 mM NaCl and 2 mM CaCl2 was analyzed by reverse phase HPLC. Further, MMP2 was added to the 0.5 mM peptide solution (25 μL) at a final concentration of 53 nM, 230 nM and 450 nM, each mixture was incubated at 37° C. for 2 hours, and then the whole volume of the mixture was analyzed by HPLC to confirm whether or not the peptide was decomposed by MMP2.

[6] = MEND with PEG-lipid at molar ratio 5%
[7] = MEND with PEG-lipid at molar ratio 15%

aggregation of the liposomes (MMP-2 [2]; 230 nM BSA, 37° C.) | aggregation of the liposomes (MMP-2 [2]; 230 nM MMP-2, 37° C.) | cleavage by MMP-2 (MMP-2 [2]; lipid in the state of constituting liposomes) | Substance | increase of gene expression compared with PEG-DSPE (HEK293 cells; MEND modified with 5% of PEG) | gene expression activity compared with the PEG-DSPE modification group (HEK293 cells; MEND modified with 15% of PEG) | increase of gene expression compared with PEG-DSPE (HT1080 cells; MEND modified with 5% of PEG) | gene expression activity compared with the PEG-DSPE modification group (HT1080 cells; MEND modified with 15% of PEG) | aggregation on incubation ([1]; PEG content up to 5%) | aggregation on incubation ([1]; addition amount of 10%) | particle size ([1]; DOPE liposomes, addition of 1% of PEG-peptide-DOPE) | elevation of phase transition temperature compared with DOPE-PEG ([1]; DOPE liposomes, suggested by the results) | aggregation of the liposomes (MMP-2 [2]; 5.5 nM MMP-2, 37° C.) | aggregation of the liposomes (MMP-2 [2]; in PBS, 37° C.) | particle diameter [3] | ξ -potential [3] | particle diameter [4, 6] | zeta-potential [4, 6] | particle diameter [4, 7] | zeta-potential [4, 7] | decomposition of the peptide by MMP-2 (HPLC peak of degradation product) (MMP-2 [5])
Aggregation was not observed | aggregation was observed | cleaved by MMP-2 | PEG-peptide-DOPE: MeO-PEG succinate bound to Gly-Gly-Gly-Val-Pro-Leu-Ser-Leu-Tyr-Ser-Gly-Gly-Gly-Gly, bound to dioleoylphosphatidylethanolamine; tested as component of liposomes and MENDs ({MeO‑PEG succinate}-GGGVPLSLYSGGGG-{DOPE}) | 5 times | did not give the increase of the gene expression activity | 35 times | did not give the increase of the gene expression activity | aggregation was observed | aggregation was not observed | less than 200 nm | did not elevate the phase transition temperature as much as DOPE-PEG | Aggregation of the liposomes was not observed | Aggregation of the liposomes was not observed | 141 nm | 12.8 mV | 162.2 nm | +18.79 mV | 141.2 nm | +2.80 mV | 
 |  |  | GGGVPLSLYSGGGG [peptide] |  |  |  |  |  |  |  |  |  |  |  |  |  |  |  |  | peak became larger in an enzyme concentration-dependent manner
